Reference: the nanobody polyreactivity screen of Harvey et al. (2022)

Assay: yeast display, Sf9 membrane polyspecificity reagent, FACS + sequencing; frameworks hold sequencing errors
How it was run: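 Sorting gates, low and high (top ~1%), were placed on anti-HA fluorescence to track expression and on streptavidin fluorescence to track reagent binding. A clone's polyreactivity label is taken from the gate it came out of. The reagent was 10% biotinylated, detergent-solubilized Sf9 membrane, applied for 1 hour at 4 °C to galactose-induced yeast display cells.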

Row | Sequence | polyreactivity (PSR sort gate)
1 | QVQLVESGGGLVLAGGSLRLSCASSGRIFYGYAMVWSRQAPGKERELVAAITSSGRTYYADSVKGRFSISRDNAKNTVYLLMNSLKPEDTAVYYCNVVTKFTGRGYDFWGQGTQVTVSS | high polyreactivity
2 | QVQLVESGGGLVQAGGSLRLSCAASGRTFYYNAMGWYRQAPGKEREFVAAISYGGTTTYYADSVKGRFTISRDNAKNTVYLQMNSLKPEDTAVYYCAAGYTWRQSWYPFDYWGQGSQVTVSS | high polyreactivity
3 | QVQLVESGGGLVQAGGSLRLSCAASGSILTSYAMGWSRQAPGKERELVAAISTTGGSTYYADSVKGRFTISRDNAKNTVYLQMNRLKPEDSAVYYCAAAGRTYRPGTGGYGYWGQGTQVTVSS | low polyreactivity
4 | QVQLVESGGGLVQAGGSLRLSCAASGFIFFYYAMGWYRQAPGKERELVAVIDRSGGTTYYADSVKGRFTISRDNAKNTVYFQMNILKPEDTAVYYCNADDFTYPSGWGFIYDYWGQGTQVTVSS | low polyreactivity
5 | QVQLVESGGGLVQAGGSLRLSCAASGSTFVVNDMGWYRQAPGKDRELVASITAGGSTYYADSVKGRFTISRDNAKNTVNLQMNSLKPEDTAVYYCAKVQDRAYLPHQRGRERDYDYWGQGTQVTVSS | low polyreactivity
6 | QVQLVESGGGLVQAGCSRRFSCAASGFTFYKNAMGWYRQAPGKERELVAAITSSGGTTYYADSVKGRFTISRDNAKNTVYLQMNSLNPEDTAVYYCAARASRPRFGYWGQGTQVTVSS | high polyreactivity
7 | QVQLVESGGGLVQAGGSLRLSCAASGLIFTDYDMGWYRQAPGKERELVAAISTSGGSTYYADSVKGRFTISRDNAKNPVYLQMNSLKPAETAVYYCAAEYVYPYWNGFDYWGQGTQVTVSS | low polyreactivity
8 | QVQLVESGGGLVQAGGSLRLICAASGRTFVPYAMGWYRQAPGKERELVAAISQSGGRTYYTDSVKGRFTISRDNAKNTVYLQMNSLKPEDTAVYYCAKRYIYRYVWGGGDYWGQGTQVTVSS | high polyreactivity
9 | QVQLVESGGGLVQAGGSLRLSCAASGRIFGSYAMGWYRQAPGKERELVAAISWRGTSTYYADSVKRRFTISRDNAKKTVYLQMNSLKPEDTAVYYCAARGLWPYDYWGQGTQVTVSS | low polyreactivity
10 | QVQLVESGGGLVQAGGSLRLSCAASGRTFVKNAMGWYRQAPGKERELVAVISQSGGSTYYADSVKGRFTISRDNAKNTVYLQMNCLKPEDTAVYYCAARYSYYRQGDSWYNYNYWGQGTQVTVSS | high polyreactivity
11 | QVQLVESGGGLVQAGGSLRLSCAASGSIFPAYAMGWYRQAPGKERELVAAITRGGRTNYADSVKGRFTISRDNAKNSVYLQMNSLKPEDTAVYYCAKAVQGKYGYWGQGTQVTVSS | high polyreactivity
12 | QVQLVESGGALVQAGGSLRLSCAASGSIFGLKDMRWYRPAPGKEREFVAAITWSGGSSTYYADSVKGRFTISRDNAKITVSLQMNSVKTEDTAVYYCAADDRTLPADVDYWGQGTQVTVSS | high polyreactivity
13 | QVQLVESCGGLVQAGGSLRLSCAASGRTFNSYAIGWYRNAPGKERELVAAISWIGGSTYYADSVKGRFTISRDNAKNTVYLQMNSLKPEDTAVYYCAADSYRFYSGYYYWGQGTQVTVSS | low polyreactivity
14 | QVQLVESGGGLVQAGGSLRLSCAASGRIFVTNDMGWYRQAPGKETELVAAINWNGDSTNYADSVKGRFTISRDNAKNTVYLQLNSLKPEDTAVYYCAAGWFTRDTLAGYDYWGKGTQVTVSS | low polyreactivity
15 | EEELVESGGGLVQAGGSLRLSCAASGSIFTHYAMGWYRPAPGKERELVAAISWSGGSTYYADSVKGRFTISRDNAKKTVYLQMNSLKPEDTAVYYCAAETYWGDDYWGQGTQVTVSS | high polyreactivity
16 | QFQLVESGGGLVQAGVSLRLICAASVSTFGYNAMGWYRQAPGKERELVPANNGRGGGTYYADSVKGRFTISRDNAKNTVYLQINSLKPEDTAVYYCAKLRRAGTGRGSHVYRQSDYWGQGTQVTVSS | high polyreactivity
17 | QVQLVESGGGLDQAGGSLRLSCAASGSTFNSYVMGCYRQAPGKEREFVAAISWSGVRTYYADSVKGRFTISRDNAKNTVFLQMNSLIPEDTAVYYCAVRSGRRNYYRPAFGYWGQGTQVTVSS | high polyreactivity
18 | QVQLVESGGGLVQAGGSLRLSCAASGSISASYAMGWYRQAPGKERELVAAITSGGSTYYADSVKGRFTISRDNAKNTVYLQMNSLKPEDTAVYYCAKRPKRTYYPHIGYDYWGQGTQVTVSS | low polyreactivity
19 | QVQLVESGGGLVQAGGSLRLSCAASGSTFRTYAMGWYRQAPGTEREFVAVISASGGSTYYADSVKGRFTISRDNAKNTVYLQMNSQKPEDTAVYYCNAGRPRFYRSRWYYYGYGYWGQGTQVTVSS | high polyreactivity
20 | QVQLVESGGGLFQAVGSLRLSCAASGLFFIKYTMGWYRQAPGKERELFAVISGSGGSTYYADSVKGRFTISRDNAKNTVYLQMNSLKPEDTAVYYCAARSYALGYGGGYWGQGTQVTVSS | high polyreactivity
21 | QVQLVESGGGLVQAGGSLRLSCAASGYTFKTNDMGRYRQAPGKEREFVAAIDSGGNTYYADSVKGRFTISRDNAKITVYLQMNSLIPEDTAVYYCGAYRDYQYDYWGQGTQVTVSS | low polyreactivity
22 | QDQLEESGGGLVQAGGSLRLSCAASVRTFRDNAMGWSRQATGKQRQLVAAITQSGASTFYADSVKGRFTISRDNAKNSVYLQMNSLKADDTAVYYCAALRRQGRYVYGYWGQGTQVTVSS | high polyreactivity

Row | Sequence | polyreactivity (PSR sort gate)
23 | QVQLVDSGGGLVQAGGSLRLSCAASGSTFKIYAMGWYRQAPGKERELVARITSGGSTNYADSVKGRFTISRDNAKNTVYLQMNSLKPEDTAVYYCAARRWSYSTRGQRSSNLDYWGHGTQVTVSS | high polyreactivity
24 | QVQLVESGGGLVQAGGSLRLSCAASGRTFTTYAMGWYRQSPGKERELVAAISGSGGSTYYADSVKGRFTISRDNAKNTVYLQMNSLKPEDTAVYYCATAYYYHGGYYYPYDDYWGQGTQVTVSS | low polyreactivity
25 | QVQLVESGGGLVQAGGSLRLSCAASGRIFAYYVMGWYRQAPGKERELVAVISGSGSSTYYADSVKGRFTISRDNAKNTVYLQMNSLKPEDTAVYYCAASIQLYRSFITREYWGQGTQVSVSS | high polyreactivity
26 | QVQLVESGGGLVQAGGSLRLSCAASGSIFVYKAMGWYRQAPGKERELVAGITFIGGSTYYADSVKGRFTISRDNAKNTVYLQMNCLKPEDTAVYYCNADVAPGIFYGYDSWGQGTQVTVSS | low polyreactivity
27 | QVQLVESGGGLVQAGGSLRLSCAASGLIFTYYAMGWYRQAPGKEREMVAAISSSGVNTYYADSVKGRFTISRDNAKNTVYLQMNSLKPEYTAVYYCAAELQPSPVGGIIQYGFDYWGQGTQVTVSS | low polyreactivity
28 | QEQLQESGGGLVQAGGSLRLSCAASGIIFDWFFMGWYRQAPGREREFVAAITYGATTNYADSVKGRFTISRDNGKNTVYLQMNSLKPEDSAVYYCAAQHRGVQVTFGEYDYWGQGTQVTVSS | low polyreactivity
29 | QVQLVESGGGLVQAGGSLRLSCAASGRIFIGYAMGWYRQAPGKERELVAAITSGGRTYYADSVKGRFTISRDNAKNTVYLQMNSLKPEDTAVYYCYRAAFRYRYDYWGQGTQVTVSS | high polyreactivity
30 | QVQLVESGGGLLQAGGSLRLSCAASGSIFNYSAMGWYRQAPGTERELVATISSGGNTKYADSVKGRFTISRDNAKNTVYLQMNSLKPEDTAVYYCAARWQHSGYRDRYWYDYWGQGTQVTVSS | low polyreactivity
31 | QVQLVESGGGLVQAGGSLRLTCAASGSTFWYYAMGWYRQAPGKERELVASITYSGGSTYYADSVKGRFTISRDNAKNTVYLQMNSLKPEDTAVYYCAKDGVSPSLRAYAAGYDYWGQGTQVTVSS | low polyreactivity
32 | QVQLVESGGGLVQAGGSLRLSCAASGSNFTNYAMGWYRPAPGKERELVARITSSGSRTYYADSVKGRFTISRDNAKNTVYLQMNSLKPEDTAVYYCNAETYYLRYGRGYRRFDYWGQGTQVTVSS | high polyreactivity
33 | QVQLVESGGGLVQAGGSLRLSCAASGGTFGSYAMGWYRQAPGKERELVAAITGSGGRTYYADSVKGRFTISRDNAKNTVYLQMNSLKPEDTAVYYCNATRGIGPPFYYWGQGTKVTVSS | high polyreactivity
34 | QVQLVESGGGLVKAGGSLRLSCAASGRIFYYNTMGWYRQAPGKERELVAAITTNGGSTYYADSVKGRFTISRDNAKNTVYLQMNSLKPEDTAVYYCNRDRYPYYYAYNYWGQGTQVTVSS | low polyreactivity
35 | QVQLVESGGGLVQAGGSLRLSCAASGYTFGFYTRGWYRQAPGKERELVAGISWSGGSTYYADSVKGRFTISRDNAKNTVYLQMNSLKPEDTAVYYCATRWRGRYDYWGQGTQVTVSS | high polyreactivity
36 | QVQLVESGGGFVQAGGSLRLSCAASGFTFGYYTMGWYRQAPGKERELVAAITYRGGRTYYADSVKGRFTISRDNAKNTVYLQLNSLKPEATAVYYGAARLLGKTGRTDSGAEGDYWGQGTQVTVSS | high polyreactivity
37 | QGQLVESGGGLVQAGGSLRLSCAASGSISLYAMGWYRQAPGKERELVAAITKSGGSTYYADSVKGRFTISRDNAKNTVYLQMHSLKPEDTAVYYCNRGGGERKYNYWGQGTQVTVSS | high polyreactivity
38 | QVQLKESGAGLVQAGGSLRLCCAASGNIIPDAGMGWYRQAPGKEREFVAGISRGANTYYADSVKGRFTISRDNAKNSVYLQMNSLKPEDTAVYYCNAGSSYLCRFPLDYWGQGTQVTVSS | high polyreactivity
39 | QVQLVESGGGLVQAGGSLRLSCAASGRIFGSYAMGWYRQAPGKERELVAAITTDDSTNYADSVKGRFTISRDNAKNTVYLQMNSLKPEDTAVYYCNAERWDELFDSWGQGTQVTVSS | low polyreactivity
40 | QVQLVESGGGLVQAGGSLRLSCAASGRIFRRYAMGWYRQAPGKERELVAAISWSGGATYYADSVKGRFTISRDNAKNTVYLQMNSLKPEDTAVYYCAALRYQQCRAYDYWGQGTLVTVSS | high polyreactivity
41 | QVQLVESGGGLVQAGGSLRLSCAASGFTFQGNVMGWYRQAPGKERELVAASTGGGGDTYSADSVKGRFTISRDNAKNTVYLQMNSLKPEDTAVYYCAAEVAPEWYWPWFFDYADGYWGQGTQVTLSS | high polyreactivity
42 | QVHLVESGGGLVQAGGSLRLSCAASGIIFLVYAMGWYRQAPGKEWELVAGISGSATSTNYADSVKGRFTISRDNAKNTVYLQMNSLKPEDTAVYYCAASYYGYYVPDNSKYGYWGQGTQVTVSS | low polyreactivity
43 | QVQLVESGGGLVQAGGSLRLSCADSGRIFLTNAMGWYRQAPGKERELGATITSGGSTNYADSVKGRFTISRDNAKNTVYLQMNSLKPVDTAVYDCAADWEFGFDYWGQGTQVTVSS | low polyreactivity
